{"source": "patent US20140004122A1", "about": "“METHODS FOR TREATING OR PREVENTING CHOLESTEROL RELATED DISORDERS” (AMGEN INC., priority 2011, published 2014)", "molecules": {"B1": {"name": "21B12: human anti-PCSK9 monoclonal antibody; light/heavy variable region SEQ ID NO 23/49 (antibody, listed as Homo sapiens, V domains shown)", "VH": "QVQLVQSGAEVKKPGASVKVSCKASGYTLTSYGISWVRQAPGQGLEWMGWVSFYNGNTNYAQKLQGRGTMTTDPSTSTAYMELRSLRSDDTAVYYCARGYGMDVWGQGTTVTVSS", "VL": "QSALTQPASVSGSPGQSITISCTGTSSDVGGYNSVSWYQQHPGKAPKLMIYEVSNRPSGVSNRFSGSKSGNTASLTISGLQAEDEADYYCNSYTSTSMVFGGGTKLTVL"}}, "key": {"[1]": {"tested_on": "patients from four studies described in Examples 22-25", "test": "Aggregate data of the studies of Examples 22-25", "assay_type": "in vivo, human"}, "[2]": {"tested_on": "hypercholesterolemic subjects with a 10 year Framingham risk score of 10% or less", "test": "12 week monotherapy dose-ranging study (Example 24)", "assay_type": "in vivo, human", "settings": "for mean percent reduction from baseline in LDL-C: preliminary; for Least squares mean percent change from baseline (%) in LDL-C / Treatment difference vs ezetimibe (%) in LDL-C / Treatment difference vs placebo (%) in LDL-C: week 12; for Treatment difference vs ezetimibe (%) in LDL-C / Treatment difference vs placebo (%) in LDL-C: P < 0.001", "procedure": "Ezetimibe was not blinded. The end-of-study visit and the last estimation of lipids was at week 12 for subjects on Q4W IP schedule or on ezetimibe and week 14 for subjects on Q2W IP schedule.\nMales and females, ≧18 to ≦75 years of age, were eligible for this study. Fasting LDL-C was ≧100 mg/dL (2.6 mmol/L) and <190 mg/dL (4.9 mmol/L) and fasting triglycerides ≦400 mg/dL (4.5 mmol/L) by central laboratory at screening.\nThe primary endpoint was the percent change from baseline in LDL-C at week 12. Secondary endpoints included percent changes in apolipoprotein B (ApoB), lipoprotein (a) (Lp(a)), and in the ratio of total cholesterol to high-density lipoprotein (HDL)-C. Tolerability and safety were also evaluated."}, "healthy subjects": {"tested_on": "healthy subjects", "test": "Phase 1 ascending single dose study (Example 20)", "assay_type": "in vivo, human"}, "[3]": {"target": "D374Y PCSK9 binding to LDLR (Homo sapiens, UniProt Q8NBP7, D374Y)", "test": "Large scale receptor ligand blocking screen and functional classification of ABPs", "settings": "functional assays of the screening", "procedure": "To screen for the antibodies that block PCSK9 binding to LDLR an assay was developed using the D374Y PCSK9 mutant. […] The following protocol was employed in the receptor ligand blocking screen: Costar 3702 medium binding 384 well plates (Corning Life Sciences) were employed in the screen. The plates were coated with goat anti-LDLR (R&D Cat #AF2148) at 2 μg/ml in 1×PBS/0.05% Azide at a volume of 40 μl/well. The plates were incubated at 4° C. overnight. The plates were then washed using a Titertek plate washer (Titertek, Huntsville, Ala.). A 3-cycle wash was performed. The plates were blocked with 90 μl of 1×PBS/1% milk and incubated approximately 30 minutes at room temperature. The plates were then washed using the Titertek plate washer. A 3-cycle wash was performed. The capture sample was LDLR (R&D, Cat #2148LD/CF), and was added at 0.4 μg/ml in 1×PBS/1% milk/10 mM Ca^2+ at a volume of 40 μl/well. The plates were then incubated for 1 hour and 10 minutes at room temperature. Contemporaneously, 20 ng/ml of biotinylated human D374Y PCSK9 was incubated with 15 micro liters of hybridoma exhaust supernatant in Nunc polypropylene plates and the exhaust supernatant concentration was diluted 1:5. The plates were then pre-incubated for about 1 hour and 30 minutes at room temperature. Next, the plates were washed using the Titertek plate washer operated using a 3-cycle wash. 50 μl/well of the pre-incubated mixture was transferred onto the LDLR coated ELISA plates and incubated for 1 hour at room temperature. To detect LDLR-bound b-PCSK9, 40 μl/well streptavidin HRP at 500 ng/ml in assay diluent was added to the plates. The plates were incubated for 1 hour at room temperature. The plates were again washed using a Titertek plate washer. A 3-cycle wash was performed. Finally, 40 μl/well of One-step TMB (Neogen, Lexington, Ky.) was added to the plate and was quenched with 40 μl/well of 1N hydrochloric acid after 30 minutes at room temperature. OD's were read immediately at 450 nm using a Titertek plate reader.\nThe receptor ligand assay was then repeated using the mutant enzyme on the 384 member subset of neutralizers identified in the first large scale receptor ligand inhibition assay. The same protocol was employed in the screen of the 384 member blocker subset assay as was done in the large scale receptor ligand blocking screen.\nLimiting dilution was used to isolate a manageable number of clones from each line. […] The isolated clones were each expanded in 50-100 ml of hybridoma media and allowed to grow to exhaustion, (i.e., less than about 10% cell viability). The concentration and potency of the antibodies to PCSK9 in the supernatants of those cultures were determined by ELISA and by in vitro functional testing, as described herein."}, "human PCSK9": {"target": "human PCSK9 (Homo sapiens, UniProt Q8NBP7)", "test": "BIAcore affinity analysis", "assay_type": "binding", "settings": "human PCSK9, pH 6.0, n=1"}}, "note": "Marks after values point to notes of the source that are not given here.", "data": [{"molecule": "B1", "values": [{"measurement": "reduction from baseline in LDL-C at week 12", "setting": "[1]; 140 mg Q2W", "result": "~60", "unit": "%"}, {"measurement": "reduction from baseline in LDL-C at week 12", "setting": "[1]; 420 mg Q4W", "result": "~56", "unit": "%"}, {"measurement": "dose dependent reduction from baseline in ApoB", "setting": "[1]; p values <0.001", "result": "36-53%"}, {"measurement": "dose dependent reduction from baseline in non-HDL-C", "setting": "[1]; p values <0.001", "result": "36-53%"}, {"measurement": "dose dependent reduction from baseline in total cholesterol", "setting": "[1]; p values <0.001", "result": "25-37%"}, {"measurement": "mean percent reduction from baseline in LDL-C", "setting": "[2]; 70 mg (Q2W), end of the dosing interval", "result": 41.21, "unit": "%"}, {"measurement": "mean percent reduction from baseline in LDL-C", "setting": "[2]; 105 mg (Q2W), end of the dosing interval", "result": 45.44, "unit": "%"}, {"measurement": "mean percent reduction from baseline in LDL-C", "setting": "[2]; 140 mg (Q2W)", "result": 51.56, "unit": "%"}, {"measurement": "mean percent reduction from baseline in LDL-C", "setting": "[2]; 280 mg (Q4W), end of the dosing interval", "result": 37.53, "unit": "%"}, {"measurement": "mean percent reduction from baseline in LDL-C", "setting": "[2]; 350 mg, end of the dosing interval", "result": 42.16, "unit": "%"}, {"measurement": "mean percent reduction from baseline in LDL-C", "setting": "[2]; 420 mg", "result": 47.52, "unit": "%"}, {"measurement": "LDL-C reductions from baseline greater than ezetimibe", "setting": "[2]; final data", "result": 37, "unit": "%"}, {"measurement": "change in LDL-C from baseline to week 12 greater than with placebo", "setting": "[2]; final data", "result": "up to 72 mg/dL"}, {"measurement": "mean reduction from baseline for ApoB", "setting": "[2]; final data", "result": "up to 44%"}, {"measurement": "mean reduction from baseline for Lp(a)", "setting": "[2]; final data", "result": "up to 29%"}, {"measurement": "least-squares (LS) mean percent reduction from baseline in LDL-C", "setting": "[2]; week 12, final data", "result": "up to 51%"}, {"measurement": "Least squares mean percent change from baseline (%) in LDL-C", "setting": "[2]; Q2W 70 mg SC (N = 45)", "result": "−40.98", "unit": "%"}, {"measurement": "Treatment difference vs ezetimibe (%) in LDL-C", "setting": "[2]; Q2W 70 mg", "result": "−26.73* %"}, {"measurement": "Treatment difference vs placebo (%) in LDL-C", "setting": "[2]; Q2W 70 mg", "result": "−37.27* %"}, {"measurement": "Least squares mean percent change from baseline (%) in LDL-C", "setting": "[2]; Q2W 105 mg SC (N = 46)", "result": "−43.87", "unit": "%"}, {"measurement": "Treatment difference vs ezetimibe (%) in LDL-C", "setting": "[2]; Q2W 105 mg", "result": "−29.62* %"}, {"measurement": "Treatment difference vs placebo (%) in LDL-C", "setting": "[2]; Q2W 105 mg", "result": "−40.17* %"}, {"measurement": "Least squares mean percent change from baseline (%) in LDL-C", "setting": "[2]; Q2W 140 mg SC (N = 45)", "result": "−50.93", "unit": "%"}, {"measurement": "Treatment difference vs ezetimibe (%) in LDL-C", "setting": "[2]; Q2W 140 mg", "result": "−36.68* %"}, {"measurement": "Treatment difference vs placebo (%) in LDL-C", "setting": "[2]; Q2W 140 mg", "result": "−47.23* %"}, {"measurement": "Least squares mean percent change from baseline (%) in LDL-C", "setting": "[2]; Q4W 280 mg SC (N = 45)", "result": "−39.02", "unit": "%"}, {"measurement": "Treatment difference vs ezetimibe (%) in LDL-C", "setting": "[2]; Q4W 280 mg", "result": "−25.17* %"}, {"measurement": "Treatment difference vs placebo (%) in LDL-C", "setting": "[2]; Q4W 280 mg", "result": "−43.57* %"}, {"measurement": "Least squares mean percent change from baseline (%) in LDL-C", "setting": "[2]; Q4W 350 mg SC (N = 45)", "result": "−43.20", "unit": "%"}, {"measurement": "Treatment difference vs ezetimibe (%) in LDL-C", "setting": "[2]; Q4W 350 mg", "result": "−29.34* %"}, {"measurement": "Treatment difference vs placebo (%) in LDL-C", "setting": "[2]; Q4W 350 mg", "result": "−47.74* %"}, {"measurement": "Least squares mean percent change from baseline (%) in LDL-C", "setting": "[2]; Q4W 420 mg SC (N = 45)", "result": "−47.98", "unit": "%"}, {"measurement": "Treatment difference vs ezetimibe (%) in LDL-C", "setting": "[2]; Q4W 420 mg", "result": "−34.14* %"}, {"measurement": "Treatment difference vs placebo (%) in LDL-C", "setting": "[2]; Q4W 420 mg", "result": "−52.53* %"}, {"measurement": "AUC0-inf (median)", "setting": "healthy subjects; 420 mg IV group", "result": 1550, "unit": "µg·days/mL"}, {"measurement": "median maximum observed concentration (Cmax)", "setting": "healthy subjects; 420 mg IV group", "result": 139, "unit": "µg/mL"}, {"measurement": "subjects with treatment-related adverse events", "setting": "healthy subjects; 18 of 42 subjects", "result": 43, "unit": "%"}, {"measurement": "subjects with treatment-emergent adverse events", "setting": "healthy subjects; 21B12 at any dose, 29 of 42 subjects", "result": 69, "unit": "%"}, {"measurement": "anti-21B12 antibodies in serum", "setting": "healthy subjects; all 42 subjects who received 21B12", "result": "negative"}, {"measurement": "effects on laboratory variables, ECGs, vital signs", "setting": "healthy subjects; in vivo", "result": "no trends indicative of clinically important effects"}, {"measurement": "tolerability", "setting": "healthy subjects; single SC and IV doses up to 420 mg", "result": "well tolerated"}, {"measurement": "serious adverse events", "setting": "healthy subjects; single SC or IV dose", "result": "No adverse events were reported as serious"}, {"measurement": "LDL-C nadir observed within (after dosing)", "setting": "healthy subjects; single dose", "result": "≤ 2", "unit": "weeks"}, {"measurement": "elimination", "setting": "healthy subjects; single dose SC or IV", "result": "nonlinear (concentration-dependent) elimination"}, {"measurement": "suppression of PCSK9", "setting": "healthy subjects; single doses ≧70 mg SC", "result": "Complete suppression of PCSK9"}, {"measurement": "neutralizing ability (blocking PCSK9/LDLR)", "setting": "[3]", "result": "neutralizing"}, {"measurement": "Kd", "setting": "human PCSK9", "result": 7.3, "unit": "pM"}]}]}
